Laboratory results published in the DeepSol protein solubility set.

assay: soluble on expression in E. coli; label from the status in PepcDB or PDB records

| Sequence | soluble on expression in E. coli |
| --- | --- |
| MAHHHHHHMDAAWEAHIRLDPATDAAMRSNSGSRANSGGAGTPPVTLAPPEHPFNVMSFNTASAGCSIAHCGFLRGREEDFLREVVQRLQPSSSPSAARHLLYVITSANDVYVVDVKTEVVFLHWAGGASTSGCSSSSSEASASPLGAQFIVTQAETYGALMYLTVARRSSVKTATEQAASRGCHLFSGGGGPERNVYQRCNDPAVYVLHLGCTKPLAASTTKAFIAGGGAYVIQAVSKDKPHPTSKHSRSNAASATASAGALSIRAPSVGASAATAAERIGSAGVCRRRRRWGGDPEEGAADLLRCQRTPRPQPVIDAQFVPSAAVLVPCHGAGHSSSSCKWICRNVQILLVTPTRQQLLCTAGRRRNGRREQRGPL | not soluble |
| MSFKDPPTLQQLARRSLLKDEALTISALPNLPVQLFPPLFKDAFTSRQRKILSLMVATWPFPVLPVGALCGIDHLETLKAVLDGLDLLMSQKDRPSRWNLQVLDLRDAHQDFWDGWAGLLHEVCSQDVFGKNQPVGNHPIPGGKQTISIKMNLSLKYCRRHSHCENLNYLYYWAKQRKDVIQVIFEKLEFTGKHCLRLKLWRLLKLSFVASIQELTIKSIHWDIYNLALIASCLGQMKNLQKLILMNIRRPSSLTDLQEARIITEIFSEFSKLHKLQHLYVNDVYFLKERLDLMLRCFERPLETLTITYCKLSESDMRYLSQCPSIHQLKYLDMSYTTFKPSSHRFLGFLGSLLERLTATLQTLKLECFHLTDSRIRDLLPGLSQCSQLTEVDFVENKFSMVSLKTLLQHTANLTQLTLEKYPAPDEVYDDSLCVIPDRFVQLCSELMNTLKGVRQPKQVYFESTIYSPNFEYLVYNLEGMVSSEPLRRRGRGMVIYISG | not soluble |
| MPFKLSPDCIVLAEPEKLHYPGDTVSGHIVLKFEKFSTCRAITLTVKGKAETGWDNVTKVGQWTYFNESGVLWKAEMSENRIEPGTHRIPFDYTVPENIPQSFEGPFGFIRFYIKVHMDRPHALDQCVKKEFLVTQKPTVVSKKHLGPEHIIRYCQKLNCNRGEIYFEAQLSNRIIFFDDPISLIIKIKNCSSRTIKKISLEAFQRIEYYSTTSACRKTHSVLIGKTGKSELKIRNDEIAISTFSMKFKEPATPSFASELIQVSYVLLVNLFTDGFWAAPLVFPVEFEVGKKSDVGTEDEETCDGLINFDED | not soluble |
| TPVSEKQLAEVVANTVTPLMKAQSVPGMAVAVIYQGKPHYYTFGKADIAANKPVTPQTLFELGSISKTFTGVLGGDAIARGEISLDDPVTRYWPQLTGKQWQGIRMLDLATYTAGGLPLQVPDEVTDNASLLRFYQNWQPQWKPGTTRLYANASIGLFGALAVKPSGMPYEQAMTTRVLKPLKLDHTWINVPKAEEAHYAWGYRDGKAVRAVRVSPGMLDAQAYGVKTNVQDMANWVMANMAPENVADASLKQGIALAQSRYWRIGSMYQGLGWEMLNWPVEANTVVEGSDSKVALAPLPVAEVNPPAPPVKASWVHKTGSTGGFGSYVAFIPEKQIGIVMLANTSYPNPARVEAAYHILEALQ | soluble |
| RRIGKVNLRHNRGFLTPELKRNFLRYTLFYVVASIGSKLSSRLDLFMVSSLDKGGLDSGGIFSIAFYMVAVVEIPSRSLLSVSSPLMADAMKRNDLVKADELFKRVSLHQ | not soluble |
| MGHHHHHHSHKKHNQGKEAAQRVLSQIDVAQKKLQDVSMKFRLFQKPANFEQRLQESKMILDEVKMHLPALETKSVEQEVVQSQLNHCVNLYKSLSEVKSEVEMVIKTGRQIVQKKQTENPKELDERVTALKLHYNELGAKVTERKQQLEKCLKLSRKMRKEMNVLTEWLAATDMELTKRSAVEGMPSNLDSEVAWGKATQKEIEKQKVHLKSITEVGEALKTVLGKKETLVEDKLSLLNSNWIAVTSRAEEWLNLLLEYQKHMETFDQNVDHITKWIIQADTLLDESEKKK | soluble |
| MRCVVYSIAKSSPLELVKIYQKQCRQFDCELELVDLFPKNTANAQKVSKKLAQKSYSLAFEPYLNPKAKNIALHPKAQRGDSFAFSKMLENHLNINFFIAGAYGFEENFLKDCQAWSLSEMTFSHEVAKIVLCEQIYRALSIIFKHPYHKLEHHHHHH | not soluble |
| MGRKKGLPEFEESAPDGFDPENPYKDPVAMVEMREHIVREKWIQIEKAKILREKVKWCYRVEGVNHYQKCRHLVQQYLDSTRGVGWGKDHRPISLHGPKPEAVEAE | not soluble |
| MRVYDMHVHLHEYSDREVEEILDADKSLVVVAVSDDLESAWRTLDLWHTFGGRVVPCLGFHPWNVREGRVWEAWEVLRLAYRYGVPCLGEVGLDRRFVDEYTWRVQNEVFDAFVQLAEDMGVMLNIHAPDAWKHVAHRIGWTSRARFMYHWYTGPATLPRALPEGRVWFSINSAIRVQEKSVRVAREIPLRSLVVESDGPYNYRGLRLSPLMVRETVKLVAEARGEDPGRLMEAISLNSERLLGLL | not soluble |
| DHYNCVSSGGQCLYSACPIFTRIQGTCYRGRARCCR | soluble |
| MRGLDYRWIEALDSVVSKGSFERAAEQLFISQSAVSQRIKQLEKYLAQPVLIREQPPRPTLVGKKLLGLYRRVCLIEQELVPELTNQEHVRPVSMSIATNADSLATWLLPALDKVMKSRQVELNLVIYGESRTLDKLKNGEVVGAISLEPQPITGCSAEYLGQMEYLCVASPEFYQKYFAKGVTPRSLIKAPAVSYDQYDELHNKFLWDYFAVPRDKVINHTVGSSEAFVRLALSGAAYCLIPRLQIISELESGALINMTPDFMLSYPIFWHHWQLETGVLLEISEAITAYAKSVLPQ | not soluble |
| MNNWREIAVRPDESIRETLEVIDEGAVQIAIVADGHDHLQGIVTDGDIRRGILKDLDLGAPVASVMNEDPITARPQEDRQSLIDTMRARRIHQIPLVDNEGRVVGIEVLDDLLEPEARPNPVVLMAGGLGTRLRPLTDDCPKPLLEVGDKPILETILEGFIAHGFHRFYLSVNYKAGMIEDYFRDGSNWGVDISYVHEEKRLGTAGPLSLLPERPDETMIVMNGDLLTKLNFTHLLDFHREHGAVATMCVREHETQVPYGVIETDDQSMEGIEEKPTERYFVNAGIYVLEPETLGYVPENEFFDMPDLFKRLIDEGKEATVFPVREYWQDVGRKEDFHRVNGEYEEVFDTLEHHHHHH | soluble |
| MPMNRLISHIERSISIHKCVVVPSLGGFVAELLPACYDRDDNLIYPPKEELRFNAALSLRDGILEDSYARAYGISHRRARVMLDDDVRTLRAELVRAGRVSLEKMGELTLNPEGQISYSHRSEAEEGSGFSYGLAPCSLPRLAESFDEARPFAEREKEALSVGRSDYFYLKIHKRTGMMAAAAVMSAVLLVVPWGQISSSDKFAASFVPTELTAKSVWKDTEARPVQVVTAKPASVATTADSQPIEATASKPAESPNQLSTDVAEGGVPVMHEPVGSKCYYVVVGTFDTKKKAQEFYRMSIDKAIMPNAVVLLSSNKARIYSDRFATADEAQTYIRSMKDKHRLFADAWVYAGR | not soluble |
| MAHSTIPTLLCFCDEPLKRTNEGAEHVNQARRYAKWHVYRERGYETVPPTENPDSLLAACIAVARLSETAFEDAFGDIEAQIRSHYDDSTVELPFADADGSDILVYKKDIAVRPDPMTFDPPVLEQFLGQFSGDSDSPVVPAKADLDREVFDDLDFELKSVSGMHYLHNDGYDNERTVQSSQRLGTDPDATVEMIPVDPAEFGNFQHYVTSNLIYQARDVLLRMGVKPPIAFRAQGQGKYRATLEQQACPQYENYWDATADIQSWEPK | not soluble |
| MGSDKIHHHHHHMRRVISIFRKLSAVYCHTGNFAEGIRVCKYALGRFTEMEDKYKCIFTFNMSLYYNYLGEYGKALNAITGFESVIKATYEDRYYKVLLLKADCYYGAERYAESLSIYNKLISITLKDDFNNLCVYYNNMTQVYLRMGKRDMAVNCINTVINNLHNISDDFEALPQIYAELGKSYLMMADNDKSIKYLTIALKLSKDFKYYSVTKDILNELSKIKGNSNKLKLKDEFIILTENMGRSYDSLNHSLVFNIIQYYTRLGDVASINELCEYCKERKVG | not soluble |
| MSLKNPPQILMPDVVYTDLKKPILVHIKDDESSIKNVQIILHKDDNTSAMVIADEKISNLKDITLQVALPKFGYKENVKSFVLEVIAKDSSFWNFFSGNEARKQIAVLVDNTAPKINIISNSYQIEQGGAGAVVFKADDANLDKVYIETNKGKIFKATPYVKEGYYAALIAWDARDEEFRAFVIATDKAGNISKERIRYYFVNRKYRVSNINLTDKFLDGKIENLANQYAPKDNNLNRYEKFKFVNETLRNSNEKLIHEITSKVPEEKIDNFDLNLFLPLKNGMKVADFADHRYYSYNGQFVSDSYHMGLDLASVAQAPIISNNAGKVVFAAENGIYGLNLIVYHGFGVYSLYGHCSSKNVDLDEMINKQSIIGKTGTSGLALGDHLHFGVLVQGVETRPEQWQDKKWIENNIYNVLNDGKKIILGKNEGHHHHHH | soluble |
| MGSDKIHHHHHHMETKDLIVIGGGINGAGIAADAAGRGLSVLLLEAQDLACATSSASSKLIHGGLRYLEHYEFRLVSEALSERETLLKMAPHIIFPMRFRLPHQPHLRPAWMIRIGLFMYDNIGKRVSLPASKGLKFGADSVLKPELKQGFEYSDCWVDDARLVVLNAQEVAKRGGEVRTRTKVTRARREQGVWIVDAVDSLTGETFTWRAKGLVNATGPWVKEFFDDGLQLKSPYGIRLIKGSHIVVPRVHNQPQAYILQNKDHRIVFVIPWQDDYSIIGTTDVEYKGNPHDVKIDDNEVGYLLDVYNDHFKQQLTRDDIVWTYSGVRPLCDDESDSPQAITRDYTLSVDDDNGQAPLLSVFGGKLTTYRKLAEHALDKLHKYYPQAGKAWTKDAVLPGGDIAGTRDDYAAALRRRFNLPESLTRRYSRTYGSNSELILANVKGLSDLGEDFGHDLYEAELRYLVEKEWAVTLDDVIWRRTKLGMRFDDAQKQRISDWLVSYRQQQMAKAG | not soluble |
| MSLEIIKTGLAAFGMSGQVFHAPFISTNPHFELYKIVERSKELSKERYPQASIVRSFKELTEDPEIDLIVVNTPDNTHYEYAGMALEAGKNVVVEKPFTSTTKQGEELIALAKKKGLMLSVYQNRRWDADFLTVRDILAKSLLGRLVEYESTFARYRNFIKPNTWKETGESGGGLTYNLGSHLIDQAIQLFGMPEAVFADLGILREGGKVDDYFIIHLLHPSLAPNVKITLKASYLMREAEPRFALHGTLGSYVKYGVDKQEAALLAGEIPERPNWGEESEQEWGLLHTEINGKEICRKYPGIAGNYGGFYQNIYEHLCLGQPLETHAQDILNVIRIIEAAYQSHRENKIVNLKEGHHHHHH | soluble |
| MAFHHGRRCRITPLPETESLQESKKMNINELGARIDRPTIRELIAYATCRNRPISNSTLLRMEKDGRIPCRLKTPLTSPVWDTREVLEALGLQQ | not soluble |
| AIAEALWTNKIEDPLSLMSFTVPPLRLLSAAMWQVTERRQVKHYGMLEEFVSLVTETIPELLNQHQRAQLILGLRARHLLELCRGKHQGSLKEIQPHLKRLCRPRVNKEFADEDMEESEACFLDLVRTLISNPKEKEHYFQNIFPEEYGPKFDKNLHALMEDFLLKLDRMVSVPDLSETVSWLRTCPSLLDDCIDSVSVPKDMKSLLEHHTAKGNLQDSEGNNCTFSSQSLPPLVQVVISSDHTESGEPSDLNGQDNDDEQASKTSSDGWTIKKIKLKTETEEEDNDQNWPITEAKSTGTRDGYDDGCLGEEPNQTQS | soluble |
| MSLATSAFCAISSAALADGGQTKLPLLELPGIEDRDYWVPGEVNVEGKLEAMQAVVGAKAVPFAGTQAEPIQIAMIYPSADTSDFWARNYIAMTKRLEELGIQFETTEFASRQIEHSLQSTYANQVVQDADLYDFVIFGPSELAIQADNIDKMAASEGFSTFVWAFHTPLKDLKNQPDGWFDFSSAAGALTMCDYMLGRLGNDVTMAMNRGIPGITDDQRSGDFKACVEEKGNWTTIYEHYGEYQREGGFEGTSLILQAYPEATVIHNANTAMAMGSVEAQISVGKEKEVFSTGWGGTGLELDAIRRGELDATPMRMGDDVGAATAEAIKAHLEGRSDELPFVFLGRITVAHDQMSAEEIDALEAEAFRFSGVGALEREGHHHHHH | soluble |
